These are literature values, as cited in patent publication US20050181456A1, “Methods for determining the amount of peptide YY in blood” (Nastech Pharmaceutical Company Inc., priority 2004, published 2005).

The target of this data set is T1, Y2 receptor (Homo sapiens, UniProt P49146).
T1 sequence (P49146 1-381): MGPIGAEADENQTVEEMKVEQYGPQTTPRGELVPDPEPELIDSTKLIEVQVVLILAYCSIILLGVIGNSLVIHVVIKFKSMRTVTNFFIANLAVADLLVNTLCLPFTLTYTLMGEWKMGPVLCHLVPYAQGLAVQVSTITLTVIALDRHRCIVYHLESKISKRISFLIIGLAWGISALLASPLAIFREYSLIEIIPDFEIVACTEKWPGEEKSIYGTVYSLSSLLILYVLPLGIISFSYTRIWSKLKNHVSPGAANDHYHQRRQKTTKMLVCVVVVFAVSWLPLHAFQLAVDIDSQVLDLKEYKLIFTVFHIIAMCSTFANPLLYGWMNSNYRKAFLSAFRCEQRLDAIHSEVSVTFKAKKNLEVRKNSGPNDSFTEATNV
The settings on record: cited from earlier work.

Regarding “PYY fragment having only residues 22-36: PYY fragment having only residues 22-36 (ASLRHYLNLVTRQRY; listed as Homo sapiens)”, the “binding to the Y2 receptor” value was “will still bind”.
